Series [1] concerns HeLa Kyoto. Description: thermal stability score vs G1/S (z-score of summed log2 fold changes over temperatures); higher = more thermally stable than in G1/S.
The test system of series [2] is HeLa Kyoto. Description: solubility change mitosis vs G1/S (difference of NP-40 vs SDS log2 ratios) (log2 ratio difference); higher = more soluble in mitosis.
In series [3] the test system is HeLa Kyoto. Nature of the series: solubility in G1/S (NP-40 vs SDS abundance) (log2 ratio); higher = more soluble. The conditions noted are these: cell cycle stage: G1/S.
For series [4], the system named is HeLa Kyoto. Description: melting temperature (median over replicates), in situ; higher = more thermally stable.
Setting [5] is: cell cycle stage: early G1 (4.5 h after nocodazole release).

Here are results for seven sequences from the supplement of paper PMC5998384.
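Throughout, for melting temperature (median over replicates), in situ: HeLa Kyoto cells synchronized by double thymidine or nocodazole block, proteins quantified by TMT10plex mass spectrometry, three independent biological replicates.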
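Throughout, for solubility change mitosis vs G1/S (difference of NP-40 vs SDS log2 ratios): synchronized HeLa Kyoto cells (double thymidine block for G1/S, nocodazole release for mitosis), protein amounts in NP-40 versus SDS lysates quantified by mass spectrometry, three biological replicates.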
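Throughout, for solubility in G1/S (NP-40 vs SDS abundance): HeLa Kyoto cells arrested at G1/S by double thymidine block, proteins quantified by TMT10plex mass spectrometry in mild NP-40 versus SDS extracts, three biological replicates.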
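Throughout, for thermal stability score vs G1/S (z-score of summed log2 fold changes over temperatures): synchronized HeLa Kyoto cells, proteins quantified by TMT10plex mass spectrometry, three biological replicates, mitosis taken 0.5 h after nocodazole release, G1/S directly after double thymidine block.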

“MEMPLPPDDQELRNVIDKLAQFVARNGPEFEKMTMEKQKDNPKFSFLFGGEFYSYYKCKLALEQQQLICKQQTPELEPAATMPPLPQPPLAPAAPIPPAQGAPSMDELIQQSQWNLQQQEQHLLALRQEQVTAAVAHAVEQQMQKLLEETQLDMNEFDNLLQPIIDTCTKDAISAGKNWMFSNAKSPPHCELMAGHLRNRITADGAHFELRLHLIYLINDVLHHCQRKQARELLAALQKVVVPIYCTSFLAVEEDKQQKIARLLQLWEKNGYFDDSIIQQLQSPALGLGQYQATLINEYSSVVQPVQLAFQQQIQTLKTQHEEFVTSLAQQQQQQQQQQQQLQMPQMEAEVKATPPPPAPPPAPAPAPAIPPTTQPDDSKPPIQMPGSSEYEAPGGVQDPAAAGPRGPGPHDQIPPNKPPWFDQPHPVAPWGQQQPPEQPPYPHHQGGPPHCPPWNNSHEGMWGEQRGDPGWNGQRDAPWNNQPDAAWNSQFEGPWNSQHEQPPWGGGQREPPFRMQRPPHFRGPFPPHQQHPQFNQPPHPHNFNRFPPRFMQDDFPPRHPFERPPYPHRFDYPQGDFPAEMGPPHHHPGHRMPHPGINEHPPWAGPQHPDFGPPPHGFNGQPPHMRRQGPPHINHDDPSLVPNVPYFDLPAGLMAPLVKLEDHEYKPLDPKDIRLPPPMPPSERLLAAVEAFYSPPSHDRPRNSEGWEQNGLYEFFRAKMRARRRKGQEKRNSGPSRSRSRSKSRGRSSSRSNSRSSKSSGSYSRSRSRSCSRSYSRSRSRSRSRSRSSRSRSRSQSRSRSKSYSPGRRRRSRSRSPTPPSSAGLGSNSAPPIPDSRLGEENKGHQMLVKMGWSGSGGLGAKEQGIQDPIKGGDVRDKWDQYKGVGVALDDPYENYRRNKSYSFIARMKARDECK [CHERP]”: the thermal stability score in series [1] (setting [5]) amounted to 1.81; in series [1] (cell cycle stage: mitosis), 4.57. Also, the “solubility change mitosis (log2)” value in series [2] was found to be 0.513. Also, the “solubility in G1/S (log2)” value in series [3] was -0.174. Besides, the melting temperature is 47.6 °C in series [4] (cell cycle stage: G1/S) and 49.2 °C in series [4] (cell cycle stage: mitosis).
For the sequence “MENAHTKTVEEVLGHFGVNESTGLSLEQVKKLKERWGSNELPAEEGKTLLELVIEQFEDLLVRILLLAACISFVLAWFEEGEETITAFVEPFVILLILVANAIVGVWQERNAENAIEALKEYEPEMGKVYRQDRKSVQRIKAKDIVPGDIVEIAVGDKVPADIRLTSIKSTTLRVDQSILTGESVSVIKHTDPVPDPRAVNQDKKNMLFSGTNIAAGKAMGVVVATGVNTEIGKIRDEMVATEQERTPLQQKLDEFGEQLSKVISLICIAVWIINIGHFNDPVHGGSWIRGAIYYFKIAVALAVAAIPEGLPAVITTCLALGTRRMAKKNAIVRSLPSVETLGCTSVICSDKTGTLTTNQMSVCRMFILDRVEGDTCSLNEFTITGSTYAPIGEVHKDDKPVNCHQYDGLVELATICALCNDSALDYNEAKGVYEKVGEATETALTCLVEKMNVFDTELKGLSKIERANACNSVIKQLMKKEFTLEFSRDRKSMSVYCTPNKPSRTSMSKMFVKGAPEGVIDRCTHIRVGSTKVPMTSGVKQKIMSVIREWGSGSDTLRCLALATHDNPLRREEMHLEDSANFIKYETNLTFVGCVGMLDPPRIEVASSVKLCRQAGIRVIMITGDNKGTAVAICRRIGIFGQDEDVTSKAFTGREFDELNPSAQRDACLNARCFARVEPSHKSKIVEFLQSFDEITAMTGDGVNDAPALKKAEIGIAMGSGTAVAKTASEMVLADDNFSTIVAAVEEGRAIYNNMKQFIRYLISSNVGEVVCIFLTAALGFPEALIPVQLLWVNLVTDGLPATALGFNPPDLDIMNKPPRNPKEPLISGWLFFRYLAIGCYVGAATVGAAAWWFIAADGGPRVSFYQLSHFLQCKEDNPDFEGVDCAIFESPYPMTMALSVLVTIEMCNALNSLSENQSLLRMPPWENIWLVGSICLSMSLHFLILYVEPLPLIFQITPLNVTQWLMVLKISLPVILMDETLKFVARNYLEPGKECVQPATKSCSFSACTDGISWPFVLLIMPLVIWVYSTDTNFSDMFWS [ATP2A2]”, the thermal stability score is 3.11 in series [1] (setting [5]) and 3.97 in series [1] (cell cycle stage: mitosis). The “solubility change mitosis (log2)” value in series [2] is -0.116. The “solubility in G1/S (log2)” value in series [3] is -0.104. Also, the melting temperature in series [4] (cell cycle stage: G1/S) and in series [4] (cell cycle stage: mitosis) was 51.8 °C each time.
As to “MENKSLESSQTDLKLVAHPRAKSKVWKYFGFDTNAEGCILQWKKIYCRICMAQIAYSGNTSNLSYHLEKNHPEEFCEFVKSNTEQMREAFATAFSKLKPESSQQPGQDALAVKAGHGYDSKKQQELTAAVLGLICEGLYPASIVDEPTFKVLLKTADPRYELPSRKYISTKAIPEKYGAVREVILKELAEATWCGISTDMWRSENQNRAYVTLAAHFLGLGAPNCLSMGSRCLKTFEVPEENTAETITRVLYEVFIEWGISAKVFGATTNYGKDIVKACSLLDVAVHMPCLGHTFNAGIQQAFQLPKLGALLSRCRKLVEYFQQSAVAMYMLYEKQKQQNVAHCMLVSNRVSWWGSTLAMLQRLKEQQFVIAGVLVEDSNNHHLMLEASEWATIEGLVELLQPFKQVAEMLSASRYPTISMVKPLLHMLLNTTLNIKETDSKELSMAKEVIAKELSKTYQETPEIDMFLNVATFLDPRYKRLPFLSAFERQQVENRVVEEAKGLLDKVKDGGYRPAEDKIFPVPEEPPVKKLMRTSTPPPASVINNMLAEIFCQTGGVEDQEEWHAQVVEELSNFKSQKVLGLNEDPLKWWSDRLALFPLLPKVLQKYWCVTATRVAPERLFGSAANVVSAKRNRLAPAHVDEQVFLYENARSGAEAEPEDQDEGEWGLDQEQVFSLGDGVSGGFFGIRDSSFL [ZBED1]”, the thermal stability score in series [1] (setting [5]) turned out to be 0.506; in series [1] (cell cycle stage: mitosis) it was 0.95. Besides, the “solubility change mitosis (log2)” value in series [2] was -0.112. Besides, the “solubility in G1/S (log2)” value in series [3] was 0.0447. The results for the melting temperature in series [4] (cell cycle stage: G1/S) and in series [4] (cell cycle stage: mitosis) were 49.7 °C and 49.6 °C, respectively.
Regarding “MENLKHIITLGQVIHKRCEEMKYCKKQCRRLGHRVLGLIKPLEMLQDQGKRSVPSEKLTTAMNRFKAALEEANGEIEKFSNRSNICRFLTASQDKILFKDVNRKLSDVWKELSLLLQVEQRMPVSPISQGASWAQEDQQDADEDRRAFQMLRRDNEKIEASLRRLEINMKEIKETLRQYLPPKCMQEIPQEQIKEIKKEQLSGSPWILLRENEVSTLYKGEYHRAPVAIKVFKKLQAGSIAIVRQTFNKEIKTMKKFESPNILRIFGICIDETVTPPQFSIVMEYCELGTLRELLDREKDLTLGKRMVLVLGAARGLYRLHHSEAPELHGKIRSSNFLVTQGYQVKLAGFELRKTQTSMSLGTTREKTDRVKSTAYLSPQELEDVFYQYDVKSEIYSFGIVLWEIATGDIPFQGCNSEKIRKLVAVKRQQEPLGEDCPSELREIIDECRAHDPSVRPSVDEILKKLSTFSK [MLKL]”, the thermal stability score is -0.232 in series [1] (setting [5]) and 0.87 in series [1] (cell cycle stage: mitosis). In series [2], the “solubility change mitosis (log2)” value is -0.0647. Further, the “solubility in G1/S (log2)” value in series [3] worked out at 0.126. For the same sequence, the values for the melting temperature in series [4] (cell cycle stage: G1/S) and in series [4] (cell cycle stage: mitosis) were 49.6 °C and 50 °C, respectively.
Regarding “MENSTTTISREELEELQEAFNKIDIDNSGYVSDYELQDLFKEASLPLPGYKVREIVEKILSVADSNKDGKISFEEFVSLMQELKSKDISKTFRKIINKREGITAIGGTSTISSEGTQHSYSEEEKVAFVNWINKALENDPDCKHLIPMNPNDDSLFKSLADGILLCKMINLSEPDTIDERAINKKKLTPFTISENLNLALNSASAIGCTVVNIGASDLKEGKPHLVLGLLWQIIKVGLFADIEISRNEALIALLNEGEELEELMKLSPEELLLRWVNYHLTNAGWHTISNFSQDIKDSRAYFHLLNQIAPKGGEDGPAIAIDLSGINETNDLKRAGLMLQEADKLGCKQFVTPADVVSGNPKLNLAFVANLFNTYPCLHKPNNNDIDMNLLEGESKEERTFRNWMNSLGVNPYINHLYSDLADALVIFQLYEMIRVPVNWSHVNKPPYPALGGNMKKIENCNYAVELGKNKAKFSLVGIAGQDLNEGNSTLTLALVWQLMRRYTLNVLSDLGEGEKVNDEIIIKWVNQTLKSANKKTSISSFKDKSISTSLPVLDLIDAIAPNAVRQEMIRRENLSDEDKLNNAKYAISVARKIGARIYALPDDLVEVKPKMVMTVFACLMGKGLNRIK [PLS1]”, the thermal stability score amounted to 0.863 in series [1] (setting [5]) and 0.264 in series [1] (cell cycle stage: mitosis). Further, the “solubility change mitosis (log2)” value in series [2] is -0.0585. Further, in series [3], the “solubility in G1/S (log2)” value worked out at 0.301. The melting temperature in series [4] (cell cycle stage: G1/S) came to 52.6 °C; in series [4] (cell cycle stage: mitosis), 53.7 °C.
With “MENTENSVDSKSIKNLEPKIIHGSESMDSGISLDNSYKMDYPEMGLCIIINNKNFHKSTGMTSRSGTDVDAANLRETFRNLKYEVRNKNDLTREEIVELMRDVSKEDHSKRSSFVCVLLSHGEEGIIFGTNGPVDLKKITNFFRGDRCRSLTGKPKLFIIQACRGTELDCGIETDSGVDDDMACHKIPVEADFLYAYSTAPGYYSWRNSKDGSWFIQSLCAMLKQYADKLEFMHILTRVNRKVATEFESFSFDATFHAKKQIPCIVSMLTKELYFYH [CASP3]”, the thermal stability score was 0.22 in series [1] (setting [5]) and -0.0196 in series [1] (cell cycle stage: mitosis). Besides, in series [2], the “solubility change mitosis (log2)” value stood at 0.0123. Besides, the “solubility in G1/S (log2)” value in series [3] is 0.135. Moreover, the melting temperature in series [4] (cell cycle stage: G1/S) was found to be 55.7 °C; in series [4] (cell cycle stage: mitosis) it was 56.3 °C.
On to “MEPAEQPSELVSAEGRNRKAVLCQRCGSRVLQPGTALFSRRQLFLPSMRKKPALSDGSNPDGDLLQEHWLVEDMFIFENVGFTKDVGNIKFLVCADCEIGPIGWHCLDDKNSFYVALERVSHE [RABIF]”, for which the figures for the thermal stability score in series [1] (setting [5]) and in series [1] (cell cycle stage: mitosis) were 0.827 and 0.411, respectively. Besides, the “solubility change mitosis (log2)” value in series [2] is -0.0782. Besides, the “solubility in G1/S (log2)” value in series [3] was determined as 0.225. The melting temperature in series [4] (cell cycle stage: G1/S) amounted to 52.2 °C; in series [4] (cell cycle stage: mitosis), 51.7 °C.
